Test results from publication PMC12162846, “Tripartite motif-containing protein 26 promotes colorectal cancer growth by inactivating p53” (Cell Death and Differentiation, 2025).

Target: T1, His-p53 (UniProt P04637 1-393)
T1 construct: p53; also called Purified p53; source: purified
Experiment: pull-down; GST-TRIM26 fragments on beads, incubated with His-p53 or His-MDM2 at RT for 40 min; bound protein detected by Western blot with His antibody
Conditions: both partners purified

T1 sequence (P04637 whole entry): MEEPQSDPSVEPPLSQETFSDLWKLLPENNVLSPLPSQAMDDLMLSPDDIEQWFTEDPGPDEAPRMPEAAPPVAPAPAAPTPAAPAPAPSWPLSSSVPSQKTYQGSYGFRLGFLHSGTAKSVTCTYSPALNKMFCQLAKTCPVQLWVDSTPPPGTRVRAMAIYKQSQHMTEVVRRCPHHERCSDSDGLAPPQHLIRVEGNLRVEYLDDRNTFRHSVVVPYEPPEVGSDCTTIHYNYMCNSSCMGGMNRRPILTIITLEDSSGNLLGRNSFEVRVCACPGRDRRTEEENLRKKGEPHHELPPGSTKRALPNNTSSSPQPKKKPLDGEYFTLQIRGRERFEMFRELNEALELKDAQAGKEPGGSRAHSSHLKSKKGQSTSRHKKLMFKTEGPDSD

B1: GST-TRIM26 C-terminal PRYSPRY domain (aa301-539) (domain or fragment, UniProt Q12899 301-539, looked up)
chain: QGKLLRDLEYKTVSVTLDPQSASGYLQLSEDWKCVTYTSLYKSAYLHPQQFDCEPGVLGSKGFTWGKVYWEVEVEREGWSEDEEEGDEEEEGEEEEEEEEAGYGDGYDDWETDEDEESLGDEEEEEEEEEEEVLESCMVGVARDSVKRKGDLSLRPEDGVWALRLSSSGIWANTSPEAELFPALRPRRVGIALDYEGGTVTFTNAESQELIYTFTATFTRRLVPFLWLKWPGTRLLLRP
notes: also called the C-terminal domain of TRIM26; source: purified GST-fusion protein on beads
  binding result: binds
